The target in the assay is LssaCA-His (L. striatellus salivary carbonic anhydrase lacking the signal peptide, C-terminal His tag) (Laodelphax striatellus). Kind of assay: MST; 10 µM LssaCA^sp- (His-fusion) labelled with NT-647 (RED-NHS), added to serially diluted GST-NP or MBP-OsTLP^sp-; initial concentration 40 µM, 0.1% (v/v) Tween 20; Monolith NT.115; KD Fit.

In the case of “GST-NP (rice stripe virus nucleocapsid protein, GST fusion) (natural protein)”, the Kd came out at 2700 nM.

The substance “MBP-OsTLP (Oryza sativa thaumatin-like protein without its signal peptide, N-terminal MBP fusion) (enzyme)” yielded a Kd of 1300 nM.

The record behind these values is paper PMC12774414.
